Assays:
Experiment in all cases: flow cytometry, IgG on cells expressing the mutant
human CD33 variant P48N = human CD33 variant P48N (human, UniProt P20138 18-364)
Experimental: (§1) An alanine scan on human CD33 was performed to the determine the residues on CD33 that are involved in binding to the antibodies investigated. […] Briefly, a mutation library of CD33 was created by high-throughput, site-directed mutagenesis. Each residue was individually mutated to alanine, with alanine codons mutated to serine. The mutant library was arrayed in 384-well microplates and transiently transfected into HEK293-T. Following transfection, cells were incubated with the indicated antibodies (IgG or Fab) at concentrations pre-determined using an independent immunofluorescence titration curve on wild type CD33. […] Binding of each antibody to each mutant clone was determined in duplicates. For each point, background fluorescence was subtracted from the raw data, which were then normalized to antibody reactivity with wild type CD33.
(§2) Antibodies were screened for binding to the human CD33 variants in IgG format. […] For each mutation, background fluorescence was subtracted from the raw data, which were then normalized to antibody reactivity with wild-type CD33.

human CD33 variant K52F = human CD33 variant K52F (human, UniProt P20138 18-364)
Experimental: as §1, §2

human CD33 variant P48W = human CD33 variant P48W (human, UniProt P20138 18-364)
Experimental: as §1, §2

human CD33 variant D51N = human CD33 variant D51N (human, UniProt P20138 18-364)
Experimental: as §1, §2

human CD33 variant V56R = human CD33 variant V56R (human, UniProt P20138 18-364)
Experimental: as §1, §2

human CD33 variant P48Y = human CD33 variant P48Y (human, UniProt P20138 18-364)
Experimental: as §1, §2

human CD33 variant I47L = human CD33 variant I47L (human, UniProt P20138 18-364)
Experimental: as §1, §2

human CD33 variant Y49D = human CD33 variant Y49D (human, UniProt P20138 18-364)
Experimental: as §1, §2

human CD33 variant R122I = human CD33 variant R122I (human, UniProt P20138 18-364)
Experimental: as §1, §2

human CD33 variant K52D = human CD33 variant K52D (human, UniProt P20138 18-364)
Experimental: as §1, §2

human CD33 variant Y50G = human CD33 variant Y50G (human, UniProt P20138 18-364)
Experimental: as §1, §2

human CD33 variant I47Q = human CD33 variant I47Q (human, UniProt P20138 18-364)
Experimental: as §1, §2

human CD33 variant R122F = human CD33 variant R122F (human, UniProt P20138 18-364)
Experimental: as §1, §2

human CD33 variant K52G = human CD33 variant K52G (human, UniProt P20138 18-364)
Experimental: as §1, §2

human CD33 variant K52T = human CD33 variant K52T (human, UniProt P20138 18-364)
Experimental: as §1, §2

human CD33 variant D51K = human CD33 variant D51K (human, UniProt P20138 18-364)
Experimental: as §1, §2

human CD33 variant R122T = human CD33 variant R122T (human, UniProt P20138 18-364)
Experimental: as §1, §2

human CD33 variant P48Q = human CD33 variant P48Q (human, UniProt P20138 18-364)
Experimental: as §1, §2

human CD33 variant Y50N = human CD33 variant Y50N (human, UniProt P20138 18-364)
Experimental: as §1, §2

human CD33 variant P48V = human CD33 variant P48V (human, UniProt P20138 18-364)
Experimental: as §1, §2

human CD33 variant I47W = human CD33 variant I47W (human, UniProt P20138 18-364)
Experimental: as §1, §2

human CD33 variant Y49C = human CD33 variant Y49C (human, UniProt P20138 18-364)
Experimental: as §1, §2

human CD33 variant I47Y = human CD33 variant I47Y (human, UniProt P20138 18-364)
Experimental: as §1, §2

human CD33 variant I47E = human CD33 variant I47E (human, UniProt P20138 18-364)
Experimental: as §1, §2

human CD33 variant Y50R = human CD33 variant Y50R (human, UniProt P20138 18-364)
human CD33 variant Y50R, sequence (P20138 18-364 Y50R limits assumed): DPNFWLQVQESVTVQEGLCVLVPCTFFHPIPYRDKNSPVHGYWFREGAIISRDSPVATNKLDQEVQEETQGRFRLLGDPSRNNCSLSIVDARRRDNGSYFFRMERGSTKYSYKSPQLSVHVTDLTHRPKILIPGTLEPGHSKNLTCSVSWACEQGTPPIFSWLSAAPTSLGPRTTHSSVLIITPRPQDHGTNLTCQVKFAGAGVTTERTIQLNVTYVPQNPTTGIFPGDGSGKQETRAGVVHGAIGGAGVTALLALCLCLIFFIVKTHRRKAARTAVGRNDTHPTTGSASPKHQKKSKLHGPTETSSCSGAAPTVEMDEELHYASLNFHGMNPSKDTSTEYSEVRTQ
Experimental: as §1, §2

human CD33 variant K52T, sequence (P20138 18-364 K52T limits assumed): as the sequence (P20138 18-364 Y50R limits assumed) above, with R33Y, K35T counted along it
human CD33 variant D51N, sequence (P20138 18-364 D51N limits assumed): as the sequence (P20138 18-364 Y50R limits assumed) above, with R33Y, D34N counted along it
human CD33 variant I47E, sequence (P20138 18-364 I47E limits assumed): as the sequence (P20138 18-364 Y50R limits assumed) above, with I30E, R33Y counted along it
human CD33 variant P48V, sequence (P20138 18-364 P48V limits assumed): as the sequence (P20138 18-364 Y50R limits assumed) above, with P31V, R33Y counted along it
human CD33 variant P48W, sequence (P20138 18-364 P48W limits assumed): as the sequence (P20138 18-364 Y50R limits assumed) above, with P31W, R33Y counted along it
human CD33 variant R122F, sequence (P20138 18-364 R122F limits assumed): as the sequence (P20138 18-364 Y50R limits assumed) above, with R33Y, R105F counted along it
human CD33 variant I47Y, sequence (P20138 18-364 I47Y limits assumed): as the sequence (P20138 18-364 Y50R limits assumed) above, with I30Y, R33Y counted along it
human CD33 variant R122T, sequence (P20138 18-364 R122T limits assumed): as the sequence (P20138 18-364 Y50R limits assumed) above, with R33Y, R105T counted along it
human CD33 variant R122I, sequence (P20138 18-364 R122I limits assumed): as the sequence (P20138 18-364 Y50R limits assumed) above, with R33Y, R105I counted along it
human CD33 variant P48Q, sequence (P20138 18-364 P48Q limits assumed): as the sequence (P20138 18-364 Y50R limits assumed) above, with P31Q, R33Y counted along it
human CD33 variant Y49C, sequence (P20138 18-364 Y49C limits assumed): as the sequence (P20138 18-364 Y50R limits assumed) above, with Y32C, R33Y counted along it
human CD33 variant P48Y, sequence (P20138 18-364 P48Y limits assumed): as the sequence (P20138 18-364 Y50R limits assumed) above, with P31Y, R33Y counted along it
human CD33 variant I47Q, sequence (P20138 18-364 I47Q limits assumed): as the sequence (P20138 18-364 Y50R limits assumed) above, with I30Q, R33Y counted along it
human CD33 variant Y50G, sequence (P20138 18-364 Y50G limits assumed): as the sequence (P20138 18-364 Y50R limits assumed) above, with R33G counted along it
human CD33 variant K52D, sequence (P20138 18-364 K52D limits assumed): as the sequence (P20138 18-364 Y50R limits assumed) above, with R33Y, K35D counted along it
human CD33 variant P48N, sequence (P20138 18-364 P48N limits assumed): as the sequence (P20138 18-364 Y50R limits assumed) above, with P31N, R33Y counted along it
human CD33 variant V56R, sequence (P20138 18-364 V56R limits assumed): as the sequence (P20138 18-364 Y50R limits assumed) above, with R33Y, V39R counted along it
human CD33 variant Y50N, sequence (P20138 18-364 Y50N limits assumed): as the sequence (P20138 18-364 Y50R limits assumed) above, with R33N counted along it
human CD33 variant K52G, sequence (P20138 18-364 K52G limits assumed): as the sequence (P20138 18-364 Y50R limits assumed) above, with R33Y, K35G counted along it
human CD33 variant D51K, sequence (P20138 18-364 D51K limits assumed): as the sequence (P20138 18-364 Y50R limits assumed) above, with R33Y, D34K counted along it
human CD33 variant Y49D, sequence (P20138 18-364 Y49D limits assumed): as the sequence (P20138 18-364 Y50R limits assumed) above, with Y32D, R33Y counted along it
human CD33 variant I47W, sequence (P20138 18-364 I47W limits assumed): as the sequence (P20138 18-364 Y50R limits assumed) above, with I30W, R33Y counted along it
human CD33 variant K52F, sequence (P20138 18-364 K52F limits assumed): as the sequence (P20138 18-364 Y50R limits assumed) above, with R33Y, K35F counted along it
human CD33 variant I47L, sequence (P20138 18-364 I47L limits assumed): as the sequence (P20138 18-364 Y50R limits assumed) above, with I30L, R33Y counted along it

B1: Refmab #3 (antibody, human IgG1, V domains shown)
VH: QVQLVQSGAEVKKPGSSVKVSCKASGYTFTDYNMHWVRQAPGQGLEWIGYIYPYNGGTGYNQKFKSKATITADESTNTAYMELSSLRSEDTAVYYCARGRPAMDYWGQGTLVTVSS
VL: DIQMTQSPSSLSASVGDRVTITCRASESVDNYGISFMNWFQQKPGKAPKLLIYAASNQGSGVPSRFSGSGSGTDFTLTISSLQPDDFATYYCQQSKEVPWTFGQGTKVEIK
notes: Tested in IgG format; human IgG1 Fc silent (PG-LALA)
With B1 the “Mean % WT Binding” value (human CD33 variant P48N) was 98.8 % of WT, the “Mean % WT Binding” value (human CD33 variant K52F) was 6 % of WT and the “Mean % WT Binding” value (human CD33 variant P48W) was 96.4 % of WT. The “Mean % WT Binding” value (human CD33 variant D51N) was 107 % of WT, the “Mean % WT Binding” value (human CD33 variant V56R) was 97.7 % of WT and the “Mean % WT Binding” value (human CD33 variant P48Y) was 90.3 % of WT. The “Mean % WT Binding” value (human CD33 variant I47L) was 102 % of WT, the “Mean % WT Binding” value (human CD33 variant Y49D) was 94.4 % of WT and the “Mean % WT Binding” value (human CD33 variant R122I) was 112 % of WT. For the same binder, the “Mean % WT Binding” value (human CD33 variant K52D) was 101 % of WT, the “Mean % WT Binding” value (human CD33 variant Y50G) was 91.2 % of WT and the “Mean % WT Binding” value (human CD33 variant I47Q) was 106 % of WT. For the same binder, the “Mean % WT Binding” value (human CD33 variant R122F) was 106 % of WT, the “Mean % WT Binding” value (human CD33 variant K52G) was 106 % of WT and the “Mean % WT Binding” value (human CD33 variant K52T) was 103 % of WT. For the same binder, the “Mean % WT Binding” value (human CD33 variant D51K) was 88.9 % of WT, the “Mean % WT Binding” value (human CD33 variant R122T) was 103 % of WT and the “Mean % WT Binding” value (human CD33 variant P48Q) was 101 % of WT. The “Mean % WT Binding” value (human CD33 variant Y50N) was 92.4 % of WT, the “Mean % WT Binding” value (human CD33 variant P48V) was 113 % of WT and the “Mean % WT Binding” value (human CD33 variant I47W) was 112 % of WT. The “Mean % WT Binding” value (human CD33 variant Y49C) was 59.2 % of WT, the “Mean % WT Binding” value (human CD33 variant I47Y) was 109 % of WT and the “Mean % WT Binding” value (human CD33 variant I47E) was 109 % of WT. The “Mean % WT Binding” value (human CD33 variant Y50R) was 83 % of WT.

B2: Refmab #4 (antibody, human IgG1, V domains shown)
VH: QVQLVQSGAEVKKPGESVKVSCKASGYTFTNYGMNWVKQAPGQGLEWMGWINTYTGEPTYADKFQGRVTMTTDTSTSTAYMEIRNLGGDDTAVYYCARWSWSDGYYVYFDYWGQGTSVTVSS
VL: DIVMTQSPDSLTVSLGERTTINCKSSQSVLDSSTNKNSLAWYQQKPGQPPKLLLSWASTRESGIPDRFSGSGSGTDFTLTIDSPQPEDSATYYCQQSAHFPITFGQGTRLEIK
notes: as for B1
For B2, the “Mean % WT Binding” value (human CD33 variant P48N) was 3.8 % of WT, the “Mean % WT Binding” value (human CD33 variant K52F) was 3.5 % of WT and the “Mean % WT Binding” value (human CD33 variant P48W) was 1.3 % of WT. The “Mean % WT Binding” value (human CD33 variant D51N) was 76.4 % of WT, the “Mean % WT Binding” value (human CD33 variant V56R) was 99.4 % of WT and the “Mean % WT Binding” value (human CD33 variant P48Y) was 0.6 % of WT. For the same binder, the “Mean % WT Binding” value (human CD33 variant I47L) was 88.5 % of WT, the “Mean % WT Binding” value (human CD33 variant Y49D) was 2.5 % of WT and the “Mean % WT Binding” value (human CD33 variant R122I) was 85.8 % of WT. For the same binder, the “Mean % WT Binding” value (human CD33 variant K52D) was 9.4 % of WT, the “Mean % WT Binding” value (human CD33 variant Y50G) was 4 % of WT and the “Mean % WT Binding” value (human CD33 variant I47Q) was 80.1 % of WT. The “Mean % WT Binding” value (human CD33 variant R122F) was 58.1 % of WT, the “Mean % WT Binding” value (human CD33 variant K52G) was 69.5 % of WT and the “Mean % WT Binding” value (human CD33 variant K52T) was 83.5 % of WT. The “Mean % WT Binding” value (human CD33 variant D51K) was 42 % of WT, the “Mean % WT Binding” value (human CD33 variant R122T) was 93.2 % of WT and the “Mean % WT Binding” value (human CD33 variant P48Q) was 2.1 % of WT. The “Mean % WT Binding” value (human CD33 variant Y50N) was 2.3 % of WT, the “Mean % WT Binding” value (human CD33 variant P48V) was 88.5 % of WT and the “Mean % WT Binding” value (human CD33 variant I47W) was 86.8 % of WT. The “Mean % WT Binding” value (human CD33 variant Y49C) was 0.5 % of WT, the “Mean % WT Binding” value (human CD33 variant I47Y) was 96 % of WT and the “Mean % WT Binding” value (human CD33 variant I47E) was 54.8 % of WT. For the same binder, the “Mean % WT Binding” value (human CD33 variant Y50R) was 0.3 % of WT.

B3: Refmab #1 (antibody, human IgG1, V domains shown)
VH: EVQLVQSGAEVKKPGSSVKVSCKASGYTITDSNIHWVRQAPGQSLEWIGYIYPYNGGTDYNQKFKNRATLTVDNPTNTAYMELSSLRSEDTAFYYCVNGNPWLAYWGQGTLVTVSS
VL: DIQLTQSPSTLSASVGDRVTITCRASESLDNYGIRFLTWFQQKPGKAPKLLMYAASNQGSGVPSRFSGSGSGTEFTLTISSLQPDDFATYYCQQTKEVPWSFGQGTKVEVK
notes: Tested in IgG format; human IgG1 (Absolute Antibody hP67.6, Cat. No. Ab00283-10.0); also called hP67.6
For B3, the “Mean % WT Binding” value (human CD33 variant P48N) was 100 % of WT, the “Mean % WT Binding” value (human CD33 variant K52F) was 4.5 % of WT and the “Mean % WT Binding” value (human CD33 variant P48W) was 95.6 % of WT. For the same binder, the “Mean % WT Binding” value (human CD33 variant D51N) was 99 % of WT, the “Mean % WT Binding” value (human CD33 variant V56R) was 98.5 % of WT and the “Mean % WT Binding” value (human CD33 variant P48Y) was 99.5 % of WT. The “Mean % WT Binding” value (human CD33 variant I47L) was 112 % of WT, the “Mean % WT Binding” value (human CD33 variant Y49D) was 93.4 % of WT and the “Mean % WT Binding” value (human CD33 variant R122I) was 110 % of WT. The “Mean % WT Binding” value (human CD33 variant K52D) was 101 % of WT, the “Mean % WT Binding” value (human CD33 variant Y50G) was 92.8 % of WT and the “Mean % WT Binding” value (human CD33 variant I47Q) was 104 % of WT. For the same binder, the “Mean % WT Binding” value (human CD33 variant R122F) was 110 % of WT, the “Mean % WT Binding” value (human CD33 variant K52G) was 98.8 % of WT and the “Mean % WT Binding” value (human CD33 variant K52T) was 102 % of WT. For the same binder, the “Mean % WT Binding” value (human CD33 variant D51K) was 90.7 % of WT, the “Mean % WT Binding” value (human CD33 variant R122T) was 113 % of WT and the “Mean % WT Binding” value (human CD33 variant P48Q) was 120 % of WT. For the same binder, the “Mean % WT Binding” value (human CD33 variant Y50N) was 96.3 % of WT, the “Mean % WT Binding” value (human CD33 variant P48V) was 121 % of WT and the “Mean % WT Binding” value (human CD33 variant I47W) was 111 % of WT. The “Mean % WT Binding” value (human CD33 variant Y49C) was 67.2 % of WT, the “Mean % WT Binding” value (human CD33 variant I47Y) was 110 % of WT and the “Mean % WT Binding” value (human CD33 variant I47E) was 101 % of WT. The “Mean % WT Binding” value (human CD33 variant Y50R) was 94.1 % of WT.
